# Data as given in the DeepSol protein solubility set.
# Assay: soluble on expression in E. coli; label from the status in PepcDB or PDB records
row,Sequence,soluble on expression in E. coli
1,MDGGADLYKPGEPGAMKKPKSVRQERILTELNQAPSLRVAELARRLDVSTETIRRDLDEMTEQGLLNRTYGGAVRSLSTEPSVTERHTLFVGERERIAKAAVQILKGAQVLMIGSGSTTVHTARRIAVEMKNITVLTHSFGVATVLAINPTIKVVMLPGDYHATEGATVGAHAVSFLNSFYADFTILGASGLGPDGPSDALLECGAVYSAMVSRAARTIVVADHSKHDRLFPARYAPWRDIAHVVTDKAPGEDLTESLDSSGVKLTVCLEHHHHHH,soluble
2,MDGCYGISDSVGMITQPYRLYVERTDCKKNMARYYAMEITTTLFGDACLTRSWGRIGKRGQSKMHHFEREEEAVDLFLTLTRQKRSRGYRPATGRDRGLEHHHHHH,not soluble
3,MLEKHWSKSLVDSFESSKNKPSNLNGKKYILSMFPYPSGRLHIGHMRVYTISDATARYYRLNGYEVIHPIGWDSFGLPAENAARDKGVDPREWTINNIESMKQQLLKTKILFDWEKEISTCEPEFFRWTQWIFCKLFEYGLVKRTSSEVNWDPIDKTVLAAEQIDNDGKSWRSGAKAEKKKLSQWMIETPKYAKRLQEGLRKMSEQWGEVADIQANWIGKCDVYRFMLPVMKDGSNDEIIDLRIKDIFEISNAEFLVLKQSHSLADKDATQFPYKLPFQVLNGVTGRQIPVIVVEDTYQPDVTSFLNSRIGNFQKDKILVEKFAIAEPKHKRKLTKNDIQEMASFGGYGGYETSRTLTDWVVSRQRGWGTPIPMIQTKDGKRVAVQLNKLPVLGSDRGQEVDKERFGESGVFDTDTLDTFFDSAWYYLRYLDNKNKSELISKGAMKNMPVDVYVGGIEHAAVHMFFARFVAYFLKDINVIQTAEPFTDLIPQGIVRGKTFIEKETGKYLGSEDVQQSGDKLTLKNDSSVEVDAVYEKMSKSKNNGVDLAAILDSEGVDMTRLRLLEAAAPRAPINWGETDLKGIKKLLDRIAAINSQIVDARDNGKPIELKKEIDGSIKETYNFFVRNVGMCLEVLHLHNTALMRIQGFTNALKKVDPIYLAHSPEGQRAVKSLIIMLQVFCPHVASEMWSALANDGSLVSDQKWPEVDKDADIEFLLMIDGVSGGRPSLDRRIIEEMSMDQLWERATFYEHADILRMMKEDGMKLKNSSYISRKGFHVTLSCSLEGDKEENRKKIGKILDRIQAEKRKLEIGKKGGKRKKEKKIVNK,not soluble
4,MGSDKIHHHHHHMLVELKKPKLKDGKDQLRSYCNATGSPIAVWTNGDQISYYQRKDPNYFEDIPGLPNANQTLADILQIKFTLEDLIANDKLVKENKSLKTLIEEMEDDVLANAGVDVFEELFKLIFTKLYDEWYSGQGNRRSTRSLEFRNTGQTEAALKTKIQDLFDKAKKKWEGVFSEDAKISLTPSHLSVCVSSLENVKLFNSNLDVIDEAFEYLINQSSKGEKGQFFTPRYVIDLCVKMLNPQEDEYMIDTAAGSSGFPVHTIFHVWRQILDDEGLSASHLFSLEDKPPRCKEYVEDKVFAIDFDEKAVRVARTLNLIAGDGQTNVLHLNTLDYELWDEVTEQDDWDDIYHEGFKRLKRLRPKNSKDYREFQFDVLMANPPFAGDIKEPDTVGECNTYLYLKVLCKLKPSICRCSF,not soluble
5,MGSDKIHHHHHHMKRLITTGAAFLLAATLSACNGNNTSETQGDRTEQAETVQADLFSADSAYTFVQRQVNFGPRIPGTAPHRACGDWLVATLRSFGAAVQEQTAEIKAHDGTMLPMRNIIASYRPEATGRMLLMAHWDTRPVCDQDANPAMHTETFDGADDGGSGVGVLLEIARYLGQQKDLGMGIDIVFFDTEDYGSYGDDESWCLGSQYWSRNPHVAGYKAEAGILLDMVGAKGATFYWEYFSKSYAPGLISAVWQTAAALGYGNYFIQADGGALTDDHVPVIKNLGIPCIDIINYSSKNEHGFGDHWHTQRDNMQIIDKNVLDAVGETVIRYLDEQVKAASH,not soluble
6,MAHHHHHHMSGVNAWGRMHTPAKQSQFTLDMFEEWKAKQNEDIAQRGADRDPAVEEEHNRYMLRQNLNAYVCYKELDRYTTCLEDKRLIRRRDDEDGARGGGTGVSLASSFEINTRNKVNEKLCRATHNTYVSCMSSQKNQEVVLQSASLEPHCTERRAKLFRCLRENQVSEAQTNTPQCTDTYRSLLRCGLNHLWNHYWREITKFSDTDEFHLYELSRDDNKKQAYLRALTTSEAQRQSHLREARDTMLGYYLDPKAAQKGDS,not soluble
7,MGHHHHHHSHAAAIAGAKLRKVSRMEDTSFPSGGNAIGVNSASSKTDTGRGNGPLPLGGSGLMEEMSALLARRRRIAEKGSTIETEQKEDKGEDSEPVTSKASSTSTPEPTRKPWERTNTMNGSKSPVISRPKSTPLSQPSANGVQTEGLDYDRLKQDILDEMRKELTKLKEELIDAIRQELSKSNTA,soluble
8,MAEFLDDQETRLCDNCKKEIPVFNFTIHEIHCQRNIGMCPTCKEPFPKSDMETHMAAEHCQVTCKCNKKLEKRLLKKHEETECPLRLAVCQHCDLELSILKLKEHEDYCGARTELCGNCGRNVLVKDLKTHPEVCGREGEEKRNEVAIPPNAYDESWGQDGIWIASQLLRQIEALDPPMRLPRRPLRAFESDVFHNRTTNQRNITAQVSIQNNLFEEQERQERNRGQQPPKEGGEESANLDFMLALSLQNEGQASSVAEQDFWRAVCEADQSHGGPRSLSDIKGAADEIMLPCEFCEELYPEELLIDHQTSCNPSRALPSLNTGSSSPRGVEEPDVIFQNFLQQAASNQLDSLMGLSNSHPVEESIIIPCEFCGVQLEEEVLFHHQDQCDQRPATATNHVTEGIPRLDSQPQETSPELPRRRVRHQGDLSSGYLDDTKQETANGPTSCLPPSRPINNMTATYNQLSRSTSGPRPGCQPSSPCVPKLSNSDSQDIQGRNRDSQNGAIAPGHVSVIRPPQNLYPENIVPSFSPGPSGRYGASGRSEGGRNSRVTPAAANYRSRTAKAKPSKQQGAGDAEEEEEE,soluble
9,MSLDPVGPISDEETSYYVRLQYNGEILPLFTKIEGIEYKKATDIHNPLKASFIAGGGAFGYKMDDIRVDVEGLYSQLNKNDVTGAAFNPDTVADSLTAISGLVNVYYDIAIEDMPITPYVGVGVGAAYISTPLKDAVNDQKSKFGFAGQVKAGVSYDVTPEVKLYAGARYFGSFGAHFDKDTAAASKDKGELKVLYSTVGAEAGVAFNFEGHHHHHH,not soluble
10,RHMRIAVIGGGSSYTPELVKGLLDISEDVRIDEVIFYDIDEEKQKIVVDFVKRLVKDRFKVLISDTFEGAVVDAKYVIFQFRPGGLKGRENDEGIPLKYGLIGQETTGVGGFSAALRAFPIVEEYVDTVRKTSNATIVNFTNPSGHITEFVRNYLEYEKFIGLCNVPINFIREIAEMFSARLEDVFLKYYGLNHLSFIEKVFVKGEDVTEKVFENLKLKLSNIPDEDFPTWFYDSVRLIVNPYLRYYLMEKKMFKKISTHELRAREVMKIEKELFEKYRTAVEIPEELTKRGGSMYSTAAAHLIRDLETDEGKIHIVNTRNNGSIENLPDDYVLEIPCYVRSGRVHTLSQGKGDHFALSFIHAVKMYERLTIEAYLKRSKKLALKALLSHPLGPDVEDAKDLLEEILEANREYVKLG,soluble
11,MSLSKLKVSVFSKHLQFLQGEELAKATAAIGFDGVDLAVRKGGHVEPATVAKDLPALVAILRKNGLEVPMITTDIADTDTPFTEDLLKAASALGIRYYRFGAYKWSAEKPYAAQLEIMKPKLAKLAALNAKYQMCAMYHTHSGVGVVGASIWDLWYMMKDLDPKLMGMNYDVGHATIEGGLGGWIDSFKIAGNYVRGIAVKDFAWEKDPKGGQRSQWKPIGEGTVKFPQFYGMVAATDFAGPFQMHFEYPLGGANNGTRTLTVPKEEVHAAMKKDLDKTRAMLAQAGLEGHHHHHH,not soluble
12,MHHHHHHSSGVDLGTENLYFQSNAMKKVLIVFGTRPEAIKMAPLVQQLCQDNRFVAKVCVTGQHREMLDQVLELFSITPDFDLNIMEPGQTLNGVTSKILLGMQQVLSSEQPDVVLVHGDTATTFAASLAAYYQQIPVGHVEAGLRTGNIYSPWPEEGNRKLTAALTQYHFAPTDTSRANLLQENYNAENIFVTGNTVIDALLAVREKIHTDMDLQATLESQFPMLDASKKLILVTGHRRESFGGGFERICQALITTAEQHPECQILYPVHLNPNVREPVNKLLKGVSNIVLIEPQQYLPFVYLMDRAHIILTDSGGIQEEAPSLGKPVLVMRETTERPEAVAAGTVKLVGTNQQQICDALSLLLTDPQAYQAMSQAHNPYGDGKACQRIADILAK,soluble
13,RLHRLPRDCQELFQVGERQSGLFEIQPQGSPPFLVNCKMTSDGGWTVIQRRHDGSVDFNRPWEAYKAGFGDPHGEFWLGLEKVHSITGDRNSRLAVQLRDWDGNAELLQFSVHLGGEDTAYSLQLTAPVAGQLGATTVPPSGLSVPFSTWDQDHDLRRDKNCAKSLSGGWWFGTCSHSNLNGQYFRSIPQQRQKLKKGIFWKTWRGRYYPLQATTMLIQPMAAEAAS,soluble
14,MGSDKIHHHHHHMSFTVATIAREPWPVLNRFLTWHLDQGAERIILYLDDPDDPSLPRLRGEPRIDARPCTPAFWRQIGLKQDARFTRRQRGVLSQAYHELEDGWLLVLDADEMMWMSGRTIPEALATLPDEAQSLRVRSAEQVRLSDGSEAFRTPIERAAVDRVYGDLSGLLRARFGFTYHPEGKSFHRAGQRLNMKLHWAQDANGDRTPGPVWGRAERAYLMHYAAPDYARWRAKVNWRAGASGFVLPVKEQITEIAESNDPEAGYQDLYRTLHGLTDAQALALEAEGGLLRDGPKVLDLGG,not soluble
15,MGSDKIHHHHHHMSAIAERSKPSEHMPVLPEFTPLERAIINRLQYGLPLTRTPYKDVADELGVSEVTLLKHLQALLDNGTLTRFGPMFHAGEMGGGLTLAAMRIPEQDFANVTEQVNSFPEVAHNYRREHELNMWFVLATETPEGITETIQRIESLTGYTVYNMPKEQEFHVHLHFEV,not soluble
16,MSRRRQFDDEDEVQMKRRRGAPLIEDVEKKLQGVIGKVGENTGSSIECNLDKLTAFLHDDLEKYRASIIDIIAGCAIYLPNRVTVYTTLVGLLNSKNFNFGGDVVEKLISEQQDLLSKQKYQEAQNLAIFLCDLGNSGVLTAQSIGEYLESFIAAAFEENMPQVRNDYYIQTVLRCLPWIGKELTEKAPEQMENIGEAIGKYLELRNKNHVALLQVWREGSTDQKQEDYLESLSAQIEALRNADWVENHIPRHYSGFETTLQDALQHNLPSFQSPEHTSDMIYPYPLVVFRLFQDADCSAFSSKPLPGDSSIDRFLFEGEIAWIIEKNQFNRKACARELLAFAEENPSVPIGFLIFETIFGQMLRLPHAPYPAIFHCSLVLELLKLKPDDYPQILVQTVECIYRRADSMQPVCIDRMVDWFSFHLSNFQYRYTWTDWKDCLNKDAFSGSQIFVREVIEKCRRFGSYEKIIAALPQDFVKIHPCSPEVRYLIDEEDTALVQRAETFTQMFQERQPAEAFLNELKSNDENDELPYNINEFGLFVMVMLKMASKTYSHNFSALFRYQTTLKTVCDASELYQEKLLETLYSCWKTNQQMLMILTDKLLKMQVIDCSAVVGWLFDEKMWQEHDRQWLFEVLNQALEKLTRQINVVEKDIKELTEKTENKIKEEDDEESDIKMDEDETKEEKFKQDLEDLENNKEKLERMVTFQKGLFNDFLIAFIEEIKNAATSNTSEMDGSGDTPGTQTPKFMWLRGRFCHVLLAHAETLLKHSSNIADEVFSEGTDPSIIECFNQFQSLRL,not soluble
17,MIEEPVDDVIKHGPKTGTPETKTVEIPFETKREFNPKLQPGEERVKQEGQPGSKTITTPITVNPLTGEKVGEGQPTEEITKQPVDKIVEFGGEKPKDPKGPENPEKPSRPTHPSGPVNPNNPGLSKDRAKPNGPVHSMDKNDKVKKSKIAKESVANQEKKRAELPKTGLESTQKGLIFSSIIGIAGLMLLARRRKN,not soluble
18,MDRSAEFRKWKAQCLSKADLSRKGSVDEDVVELVQFLNMRDQFFTTSSCAGRILLLDRGINGFEVQKQNCCWLLVTHKLCVKDDVIVALKKANGDATLKFEPFVLHVQCRQLQDAQILHSMAIDSGFRNSGITVGKRGKTMLVVRSTHGLEVPLSHKGKLMVTEEYIDFLLNVANQKMEENKKRIERFYNCLQHALERETMTNLHPKIKEKNNSSYIHKKKRNPEKTRAQCITKESDEELENDDDDDLGINVTIFPEDY,not soluble
